Here are results for one molecule from patent US12098198 (ABION, dated 2024).

In general, Kd refers to the constant that tells how readily two partners part at equilibrium. In general, kon refers to the second-order rate constant of association. A word on the koff: it is a measure of how fast the partners let go of each other. Higher therefore signals a short-lived complex.

For experiment [1], the target named is T1, human claudin 3 (human, UniProt O15551 1-220).
T1 construct: cell lysate in the immunoprecipitation; also called CLDN3; hCLDN3
T1 sequence: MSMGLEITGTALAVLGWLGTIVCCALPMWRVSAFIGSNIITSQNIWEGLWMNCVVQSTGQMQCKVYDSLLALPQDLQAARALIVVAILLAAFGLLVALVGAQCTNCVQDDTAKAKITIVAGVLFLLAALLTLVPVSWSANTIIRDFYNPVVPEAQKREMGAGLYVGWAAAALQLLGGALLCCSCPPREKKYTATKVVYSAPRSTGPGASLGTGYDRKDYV
The experiment in a line: LigandTracer Green, FITC-conjugated antibody on hCLDN3/TOV-112D cells against TOV-112D, 1:1 two state model.

The target of experiment [2] is T1, human claudin 3. The experiment can be described thus: LigandTracer Green, FITC-conjugated antibody on hCLDN3/HEK293 cells against HEK293, 1:1 two state model (ka1).
The target in experiment [3] is T1, human claudin 3. The experiment in a line: LigandTracer Green, FITC-conjugated antibody on hCLDN3/HEK293 cells against HEK293, 1:1 two state model.
Experiment [4] has as its target T1, human claudin 3. The experiment in a line: LigandTracer Green, FITC-conjugated antibody on hCLDN3/HEK293 cells against HEK293, 1:1 two state model (kd1).
The target of experiment [5] is T1, human claudin 3. The experiment can be described thus: LigandTracer Green, FITC-conjugated antibody on hCLDN3/TOV-112D cells against TOV-112D, 1:1 two state model (kd1).
Experiment [6] has as its target T1, human claudin 3. The experiment can be described thus: LigandTracer Green, FITC-conjugated antibody on hCLDN3/TOV-112D cells against TOV-112D, 1:1 two state model (ka1).

B1: 4G3 IgG antibody (antibody, V domains shown)
VH: EVQLLESGGGLVQPGGSLRLSCAASGFTFSSYAMSWVRQAPGKGLEWVSIINPSGASTSHAQRFQGRFTISRDNSKNTLYLQMNSLRAEDTAVYYCARYGRYGSFDIWGQGTLVTVSS
VL: QSVLTQPPSASGTPGQRVTISCSGSTSNIGRNYVSWYQQLPGTAPKLLIYDTSNKHFGVPDRFSGSKSGTSASLAISGLRSEDEADYYCQSYDSSKVVFGGGTKLTVL
Take B1: the Kd is 2.35 nM in experiment [1] and 4.03 nM in experiment [3]. For the same molecule, the kon came out at 46600 M⁻¹ s⁻¹ in experiment [2] and 47400 M⁻¹ s⁻¹ in experiment [6]. In addition, the koff in experiment [4] amounted to 0.000671 s⁻¹; in experiment [5], 0.000337 s⁻¹.
